Read-outs that look alike come from different tables or passages of the source. Starred links: 1 amine or outer side, 2 acyl side, 3 side chain; linkers in the order of their positions; H or OH if unused. Non-standard residues stand in square brackets, D forms with d. Residues, ends and D or L forms follow the SMILES beside them. *: point of attachment. Benzoyl(4-SiFtBu2) = CC(C)(C)[Si](F)(c1ccc(C(=O)*)cc1)C(C)(C)C; DOTA = O=C(O)CN1CCN(CC(=O)O)CCN(CC(=O)*)CCN(CC(=O)O)CC1; PEG12 = NCCOCCOCCOCCOCCOCCOCCOCCOCCOCCOCCOCCOCCC(=O)O; d(γGlu) = O=C(O)[C@@H](CCC(=O)[*:2])N[*:1]; PEG8 = NCCOCCOCCOCCOCCOCCOCCOCCOCCC(=O)O; 1Nal = N[C@@H](Cc1cccc2ccccc12)C(=O)O; Hyp = O=C(O)[C@@H]1C[C@@H](O)CN1; NMeNle = CCCC[C@H](NC)C(=O)O; PEG4 = NCCOCCOCCOCCOCCC(=O)O; dDap = NC[C@@H](N)C(=O)O
Columns and labels:
CCK-2R = target: T1, CCK-2R (Rattus norvegicus, UniProt P30553); experiment: Determination of IC50: CCK-2R affinity on AR4-2J cells, competition with [^177Lu]Lu-DOTA-PP-F11N; assay type: binding
T1 construct: The CCK-2R expressing rat pancreatic tumor cells AR4-2J; host or cells: AR4-2J rat pancreatic tumor cells
T1 sequence (P30553 1-452): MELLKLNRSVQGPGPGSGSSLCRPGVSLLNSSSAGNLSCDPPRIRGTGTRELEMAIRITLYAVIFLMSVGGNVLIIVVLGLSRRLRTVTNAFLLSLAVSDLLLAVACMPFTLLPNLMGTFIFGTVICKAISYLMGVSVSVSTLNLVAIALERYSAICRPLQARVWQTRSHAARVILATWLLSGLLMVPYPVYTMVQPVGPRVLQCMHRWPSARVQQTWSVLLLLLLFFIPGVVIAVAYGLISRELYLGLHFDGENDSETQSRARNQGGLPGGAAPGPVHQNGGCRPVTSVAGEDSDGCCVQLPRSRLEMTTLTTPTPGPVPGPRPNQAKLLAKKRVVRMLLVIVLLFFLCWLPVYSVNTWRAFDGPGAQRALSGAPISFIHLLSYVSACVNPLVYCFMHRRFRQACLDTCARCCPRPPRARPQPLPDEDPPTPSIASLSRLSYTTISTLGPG
Summary of the method: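 Competitive displacement of 0.3 pmol/well [177Lu]Lu-DOTA-PP-F11N by compounds (10^-10 to 10^-4 M) on AR4-2J cells in BSA-supplemented medium, 3 h at 37 °C. Free label was collected from medium plus PBS rinse, and cell-bound label was recovered with 1 M NaOH, both measured by γ-counter. Each IC50 was determined twice, in triplicate.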

[1] = n-Octanol-PBS distribution coefficient (logD7.4); assay type: physicochemical; settings: pH = 7.4, ^177Lu-labeled
Protocol: Approximately 1 MBq of the labeled tracer was dissolved in 1 mL of a 1/1 mixture (v/v) of phosphate buffered saline (PBS, pH = 7.4) and n-octanol in an Eppendorf tube (1.5 mL). After vigorous mixing of the suspension for 3 min at rt, the vial was centrifuged at 9,000 rpm for 5 min (Biofuge 15, Heraeus Sepatech, Osterode, Germany) and 200 µL aliquots of both layers were measured in a γ-counter. The experiment was repeated at least five times.

[2] = target: T2, Human serum albumin (HSA) (Homo sapiens, UniProt P02768); experiment: Determination of HSA binding on a Chiralpak HSA column; assay type: in vitro ADME; settings: Tab. 8; metal not stated (Fig. 18: ^natLu)
T2 construct: purchased Daicel, Tokyo, Japan H13H-2433
Protocol: Human serum albumin (HSA) binding of the CCK-2R-targeted compounds was determined as reported by Valko et al., using a Chiralpak HSA column (50 x 3 mm, 5 µm, H13H-2433, Daicel, Tokyo, Japan) at a constant flow rate of 0.5 mL/min at rt. Therefore, an aq. solution of NH4OAc (pH = 6.9, 50 mM) as mobile phase A and isopropanol as mobile phase B were freshly prepared. In order to calibrate the column prior to the experiments, the retention times of nine reference substances with a HSA binding in the range of 13 to 99% were determined using a gradient of 100% A (0 to 3 min), followed by 80% A (3 to 40 min). Furthermore, all substances tested, were dissolved in a mixture (1/1, v/v) of A and B reaching a final concentration of 0.5 mg/mL. The HSA binding of all rhCCK ligands tested, was determined using the same gradient as for the calibration probes. The non-linear regression of the calibration experiments and the CCK-2R ligands (Fig. 29) was established using the OriginPro 2016G software (Northampton, United States).

[3] = AR4-2J cells; ^natLu-labeled; read-out: IC50 [nM] (n = 3), ^natLu-labeled

T2 sequence (P02768 25-609): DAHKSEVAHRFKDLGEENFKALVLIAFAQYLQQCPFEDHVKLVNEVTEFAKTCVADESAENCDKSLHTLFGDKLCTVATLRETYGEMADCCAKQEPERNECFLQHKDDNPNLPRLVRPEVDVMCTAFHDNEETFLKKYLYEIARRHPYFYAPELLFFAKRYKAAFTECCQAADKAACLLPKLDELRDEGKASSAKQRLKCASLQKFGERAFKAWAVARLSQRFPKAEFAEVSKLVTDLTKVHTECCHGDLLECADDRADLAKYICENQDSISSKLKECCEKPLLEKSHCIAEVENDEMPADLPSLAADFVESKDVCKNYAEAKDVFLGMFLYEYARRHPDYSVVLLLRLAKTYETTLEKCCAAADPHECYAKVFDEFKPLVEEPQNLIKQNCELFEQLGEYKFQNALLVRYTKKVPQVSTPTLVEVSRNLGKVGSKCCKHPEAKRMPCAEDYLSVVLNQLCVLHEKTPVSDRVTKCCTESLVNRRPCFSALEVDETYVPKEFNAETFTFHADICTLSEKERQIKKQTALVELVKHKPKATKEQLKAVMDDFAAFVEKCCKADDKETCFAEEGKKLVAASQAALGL

CCCC[C@@H](C(=O)N[C@@H](CC(=O)O)C(=O)N[C@@H](Cc1cccc2ccccc12)C(N)=O)N(C)C(=O)[C@H](Cc1c[nH]c2ccccc12)NC(=O)CCOCCOCCOCCOCCNC(=O)CC[C@@H](NC(=O)CCOCCOCCOCCOCCOCCOCCOCCOCCOCCOCCOCCOCCNC(=O)CC[C@@H](NC(=O)[C@@H](CNC(=O)c1cc(C(=O)O)cc([Si](F)(C(C)(C)C)C(C)(C)C)c1)NC(=O)CN1CCN(CC(=O)O)CCN(CC(=O)O)CCN(CC(=O)O)CC1)C(=O)O)C(=O)O [DOTA-rhCCK-69, DOTA-dap(SiFA-ipa)-γ-glu-(PEG)11-γ-glu-(PEG)3-Trp-(N-Me)Nle-Asp-1-Nal-NH2]
IC50 (CCK-2R; [3]): 43.1 ± 1.7 nM | logD7.4 (n ≥ 5), ^177Lu-labeled [1]: −2.11 ± 0.09 | HSA binding [%] [2]: 84.7%

CCCC[C@@H](C(=O)N[C@@H](CC(=O)O)C(=O)N[C@@H](Cc1cccc2ccccc12)C(N)=O)N(C)C(=O)[C@H](Cc1c[nH]c2ccccc12)NC(=O)CCOCCOCCOCCOCCNC(=O)CC[C@@H](NC(=O)CCOCCOCCOCCOCCOCCOCCOCCOCCNC(=O)CC[C@@H](NC(=O)[C@@H](CNC(=O)c1ccc([Si](F)(C(C)(C)C)C(C)(C)C)cc1)NC(=O)CN1CCN(CC(=O)O)CCN(CC(=O)O)CCN(CC(=O)O)CC1)C(=O)O)C(=O)O [DOTA-rhCCK-70, DOTA-dap(SiFA)-γ-glu-(PEG7-γ-glu-(PEG)3-Trp-(N-Me)Nle-Asp-1-Nal-NH2]
IC50 (CCK-2R; [3]): 12.6 ± 2 nM | logD7.4 (n ≥ 5), ^177Lu-labeled [1]: −1.67 ± 0.08 | HSA binding [%] [2]: 89.3%

CCCC[C@@H](C(=O)N[C@@H](CC(=O)O)C(=O)N[C@@H](Cc1cccc2ccccc12)C(N)=O)N(C)C(=O)[C@H](Cc1c[nH]c2ccccc12)NC(=O)CCOCCOCCOCCOCCNC(=O)CC[C@@H](NC(=O)CCOCCOCCOCCOCCOCCOCCOCCOCCNC(=O)CC[C@@H](NC(=O)[C@@H](CNC(=O)C[N+](C)(C)Cc1ccc([Si](F)(C(C)(C)C)C(C)(C)C)cc1)NC(=O)CN1CCN(CC(=O)O)CCN(CC(=O)O)CCN(CC(=O)O)CC1)C(=O)O)C(=O)O [DOTA-rhCCK-71, DOTA-dap(SiFAlin)-γ-glu-(PEG)7-γ-glu-(PEG)3-Trp-(N-Me)Nle-Asp-1-Nal-NH2]
IC50 (CCK-2R; [3]): 13.3 ± 1.3 nM | logD7.4 (n ≥ 5), ^177Lu-labeled [1]: −1.63 ± 0.06 | HSA binding [%] [2]: 89.1%

CCCC[C@@H](C(=O)N[C@@H](CC(=O)O)C(=O)N[C@@H](Cc1cccc2ccccc12)C(N)=O)N(C)C(=O)[C@H](Cc1c[nH]c2ccccc12)NC(=O)CCOCCOCCOCCOCCNC(=O)CC[C@@H](NC(=O)CCOCCOCCOCCOCCOCCOCCOCCOCCNC(=O)CC[C@@H](NC(=O)[C@@H](CNC(=O)c1cc(C(=O)O)cc([Si](F)(C(C)(C)C)C(C)(C)C)c1)NC(=O)CN1CCN(CC(=O)O)CCN(CC(=O)O)CCN(CC(=O)O)CC1)C(=O)O)C(=O)O [DOTA-rhCCK-72, DOTA-dap(SiFA-ipa)-γ-glu-(PEG)7-γ-glu-(PEG)3-Trp-(N-Me)Nle-Asp-1-Nal-NH2]
IC50 (CCK-2R; [3]): 52.3 ± 6.2 nM | logD7.4 (n ≥ 5), ^177Lu-labeled [1]: −2.32 ± 0.03 | HSA binding [%] [2]: 89.3%

CCCC[C@@H](C(=O)N[C@@H](CC(=O)O)C(=O)N[C@@H](Cc1cccc2ccccc12)C(N)=O)N(C)C(=O)[C@H](Cc1c[nH]c2ccccc12)NC(=O)CCOCCOCCOCCOCCNC(=O)CC[C@@H](NC(=O)CCOCCOCCOCCOCCOCCOCCOCCOCCNC(=O)[C@@H](CNC(=O)c1ccc([Si](F)(C(C)(C)C)C(C)(C)C)cc1)NC(=O)CN1CCN(CC(=O)O)CCN(CC(=O)O)CCN(CC(=O)O)CC1)C(=O)O [DOTA-rhCCK-73, DOTA-dap(SiFA)-(PEG)7-γ-glu-(PEG)3-Trp-(N-Me)Nle-Asp-1-Nal-NH2] ({DOTA}-[dDap](Benzoyl(4-SiFtBu2))[PEG8][d(γGlu)][PEG4]W[NMeNle]D[1Nal]-NH2)
IC50 (CCK-2R; [3]): 15.6 ± 0.7 nM | logD7.4 (n ≥ 5), ^177Lu-labeled [1]: −1.02 ± 0.06 | HSA binding [%] [2]: 90.4%

CCCC[C@@H](C(=O)N[C@@H](CC(=O)O)C(=O)N[C@@H](Cc1cccc2ccccc12)C(N)=O)N(C)C(=O)[C@H](Cc1c[nH]c2ccccc12)NC(=O)CCOCCOCCOCCOCCNC(=O)CC[C@@H](NC(=O)CCOCCOCCOCCOCCOCCOCCOCCOCCOCCOCCOCCOCCNC(=O)[C@@H](CNC(=O)c1ccc([Si](F)(C(C)(C)C)C(C)(C)C)cc1)NC(=O)CN1CCN(CC(=O)O)CCN(CC(=O)O)CCN(CC(=O)O)CC1)C(=O)O [DOTA-rhCCK-74, DOTA-dap(SiFA)-(PEG)11-γ-glu-(PEG)3-Trp-(N-Me)Nle-Asp-1-Nal-NH2] ({DOTA}-[dDap](Benzoyl(4-SiFtBu2))[PEG12][d(γGlu)][PEG4]W[NMeNle]D[1Nal]-NH2)
IC50 (CCK-2R; [3]): 12.1 ± 1 nM | logD7.4 (n ≥ 5), ^177Lu-labeled [1]: −1.19 ± 0.07 | HSA binding [%] [2]: 87.2%

CCCC[C@@H](C(=O)N[C@@H](CC(=O)O)C(=O)N[C@@H](Cc1cccc2ccccc12)C(N)=O)N(C)C(=O)[C@H](Cc1c[nH]c2ccccc12)NC(=O)CCOCCOCCOCCOCCNC(=O)CC[C@@H](NC(=O)CCOCCOCCOCCOCCOCCOCCOCCOCCOCCOCCOCCOCCNC(=O)CC[C@@H](NC(=O)[C@@H](CNC(=O)C[N+](C)(C)Cc1ccc([Si](F)(C(C)(C)C)C(C)(C)C)cc1)NC(=O)CN1CCN(CC(=O)O)CCN(CC(=O)O)CCN(CC(=O)O)CC1)C(=O)O)C(=O)O [DOTA-rhCCK-75, DOTA-dap(SiFAlin)-γ-glu-(PEG)11-γ-glu-(PEG)3-Trp-(N-Me)Nle-Asp-1-Nal-NH2]
IC50 (CCK-2R; [3]): 19.2 ± 1.6 nM | logD7.4 (n ≥ 5), ^177Lu-labeled [1]: −1.15 ± 0.05 | logD7.4 (n ≥ 5), ^177Lu-labeled ([1]; listed as [^nat/177Lu]Lu-DOTA-rhCCK-75): -1.15 ± 0.05 | HSA binding [%] [2]: 90.9%

CCCC[C@@H](C(=O)N[C@@H](CC(=O)O)C(=O)N[C@@H](Cc1cccc2ccccc12)C(N)=O)N(C)C(=O)[C@H](Cc1c[nH]c2ccccc12)NC(=O)CCOCCOCCOCCOCCNC(=O)CC[C@@H](NC(=O)CCOCCOCCOCCOCCOCCOCCOCCOCCOCCOCCOCCOCCNC(=O)CC[C@@H](NC(=O)[C@@H](CNC(=O)c1ccc([Si](F)(C(C)(C)C)C(C)(C)C)cc1)NC(=O)CN1CCN(CC(=O)O)CCN(CC(=O)O)CCN(CC(=O)O)CC1)C(=O)O)C(=O)O [DOTA-rhCCK-76, DOTA-dap(SiFA)-γ-glu-(PEG)11-γ-glu-(PEG)3-Trp-(N-Me)Nle-Asp-1-Nal-NH2]
IC50 (CCK-2R; [3]): 14.2 ± 0.9 nM | logD7.4 (n ≥ 5), ^177Lu-labeled [1]: −1.82 ± 0.09 | logD7.4 (n ≥ 5), ^177Lu-labeled ([1]; listed as [^nat/177Lu]Lu-DOTA-rhCCK-76): -1.82 ± 0.09 | HSA binding [%] [2]: 86.2%

CCCC[C@@H](C(=O)N[C@@H](CC(=O)O)C(=O)N[C@@H](Cc1cccc2ccccc12)C(N)=O)N(C)C(=O)[C@H](Cc1c[nH]c2ccccc12)NC(=O)CCOCCOCCOCCOCCNC(=O)CC[C@@H](NC(=O)[C@@H]1C[C@@H](O)CN1C(=O)[C@@H]1C[C@@H](O)CN1C(=O)[C@@H]1C[C@@H](O)CN1C(=O)CC[C@@H](NC(=O)[C@@H](CNC(=O)c1ccc([Si](F)(C(C)(C)C)C(C)(C)C)cc1)NC(=O)CN1CCN(CC(=O)O)CCN(CC(=O)O)CCN(CC(=O)O)CC1)C(=O)O)C(=O)O [DOTA-rhCCK-83, DOTA-dap(SiFA)-γ-glu-(Hyp)3-γ-glu-(PEG)3-Trp-(N-Me)Nle-Asp-1-Nal-NH2] ({DOTA}-[dDap](Benzoyl(4-SiFtBu2))[d(γGlu)][Hyp][Hyp][Hyp][d(γGlu)][PEG4]W[NMeNle]D[1Nal]-NH2)
IC50 (CCK-2R; read-out: IC50 [nM] (n = 3), ^natLu-labeled; AR4-2J cells; ^natLu-labeled): 10 ± 0.9 nM | logD7.4 (n ≥ 5), ^177Lu-labeled [1]: −1.50 ± 0.05 | HSA binding [%] [2]: 93.4%

From EP4631959A2, “NOVEL MINIGASTRIN-DERIVED CHOLECYSTOKININ 2 RECEPTOR BINDING MOLECULES FOR IMAGING AND TARGETED RADIOTHERAPY” (priority 2022, dated 2024)
